For one data set, the target named is T1, HT:F-Insv (UniProt Q8SYK5 1-376).
T1 sequence: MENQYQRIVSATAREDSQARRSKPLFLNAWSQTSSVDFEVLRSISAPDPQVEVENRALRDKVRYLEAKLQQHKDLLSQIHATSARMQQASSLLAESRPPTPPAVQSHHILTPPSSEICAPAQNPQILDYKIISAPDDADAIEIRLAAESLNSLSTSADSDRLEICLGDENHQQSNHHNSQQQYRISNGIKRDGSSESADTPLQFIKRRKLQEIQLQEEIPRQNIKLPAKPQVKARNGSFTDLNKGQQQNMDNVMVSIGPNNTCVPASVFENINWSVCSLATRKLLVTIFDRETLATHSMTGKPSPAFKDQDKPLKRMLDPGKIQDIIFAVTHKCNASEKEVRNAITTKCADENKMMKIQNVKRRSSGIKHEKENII
Briefly: EMSA; at least three shifts; EMSA: 25 mM Tris-HCl pH 7.4, 100 mM KCl, 1 mM EDTA, 0.1 mM DTT, 0.1 mM PMSF, 0.03 mg/mL BSA, 10% glycerol, 0.5% Triton X-100, 0.25 mg/mL poly(dI-dC), 30 min room temperature. Particulars: protein: recombinant; tags: N-terminal His-Thioredoxin; label: 5'-32P; blunt. Background: Mobility shift assays separate free from complexed probe on a gel.

The target in another data set is T2, HS:C-BEN (UniProt Q8SYK5 210-376).
T2 sequence: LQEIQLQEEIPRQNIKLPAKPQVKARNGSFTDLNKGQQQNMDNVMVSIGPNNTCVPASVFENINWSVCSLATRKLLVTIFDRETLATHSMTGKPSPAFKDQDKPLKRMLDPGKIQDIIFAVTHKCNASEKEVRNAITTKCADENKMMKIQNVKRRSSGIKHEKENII
Briefly: EMSA; multiple shifts, at lower protein than for P2; EMSA: 25 mM Tris-HCl pH 7.4, 100 mM KCl, 1 mM EDTA, 0.1 mM DTT, 0.1 mM PMSF, 0.03 mg/mL BSA, 10% glycerol, 0.5% Triton X-100, 0.25 mg/mL poly(dI-dC), 30 min room temperature. Conditions: protein: recombinant; tags: N-terminal His-Sumo; chain copies: 2; label: 5'-32P; blunt.

Data set [1] concerns the molecule itself. Put plainly: cross-linking; glutaraldehyde, 10 min at room temperature in PBS with 1 mM beta-mercaptoethanol; protein adjusted to 10 uM; SDS-PAGE, silver staining.
Data set [2] concerns the molecule itself. Put plainly: SEC; Superdex 200 10/300 column; 500 uL of the eluted protein loaded; sizes estimated against Bio-Rad standards (1.35 to 670 kDa).
Data set [3] deals with the molecule itself. Briefly: cross-linking; EGS, increasing amounts, 10 min at room temperature in PBS with 1 mM beta-mercaptoethanol; protein adjusted to 10 uM; SDS-PAGE, silver staining.

B1: 2xPal (dsDNA)
DNA 1: CTCGAGGGGTTTCTTTCCCAATTGGAAATGCGTCCTGTCGAGGGGTTTCTTTCCCAATTGGAAATGCGTCCTGTCGACGGTATCGATAAGCTTGATATCGAATTCCTGCAGCCCGGGGATCC
DNA 2: GGATCCCCGGGCTGCAGGAATTCGATATCAAGCTTATCGATACCGTCGACAGGACGCATTTCCAATTGGGAAAGAAACCCCTCGACAGGACGCATTTCCAATTGGGAAAGAAACCCCTCGAG
As to B1, the binding result with HT:F-Insv and with HS:C-BEN was “binds” in each case.

B2: HT:N1-111 (domain or fragment, Drosophila, UniProt Q8SYK5 1-111, looked up)
chain: MENQYQRIVSATAREDSQARRSKPLFLNAWSQTSSVDFEVLRSISAPDPQVEVENRALRDKVRYLEAKLQQHKDLLSQIHATSARMQQASSLLAESRPPTPPAVQSHHILT
notes: Insensitive (Insv), Drosophila, residues 1-111: includes the predicted coiled-coil domain (about 51-104); source: E. coli, purified (Ni-NTA Agarose); not shown: His6, N-terminal, kept; Thioredoxin, N-terminal, kept
Take B2: the “stoichiometry N” value in data set [1] amounted to 4.

B3: HT:N1-267 (domain or fragment, Drosophila, UniProt Q8SYK5 1-267, looked up)
chain: MENQYQRIVSATAREDSQARRSKPLFLNAWSQTSSVDFEVLRSISAPDPQVEVENRALRDKVRYLEAKLQQHKDLLSQIHATSARMQQASSLLAESRPPTPPAVQSHHILTPPSSEICAPAQNPQILDYKIISAPDDADAIEIRLAAESLNSLSTSADSDRLEICLGDENHQQSNHHNSQQQYRISNGIKRDGSSESADTPLQFIKRRKLQEIQLQEEIPRQNIKLPAKPQVKARNGSFTDLNKGQQQNMDNVMVSIGPNNTCVPAS
notes: source: E. coli, purified (Ni-NTA Agarose); not shown: His6, N-terminal, kept; Thioredoxin, N-terminal, kept
As for B3, the “stoichiometry N” value in data set [1] came to 4.

B4: His-Sumo C-BEN (HS:C-BEN) (domain or fragment, Drosophila, UniProt Q8SYK5 210-376, looked up)
chain: LQEIQLQEEIPRQNIKLPAKPQVKARNGSFTDLNKGQQQNMDNVMVSIGPNNTCVPASVFENINWSVCSLATRKLLVTIFDRETLATHSMTGKPSPAFKDQDKPLKRMLDPGKIQDIIFAVTHKCNASEKEVRNAITTKCADENKMMKIQNVKRRSSGIKHEKENII
notes: Insensitive (Insv), Drosophila; C domain plus BEN domain; 'lacks amino acids 1-209'; elsewhere the C domain is said to extend from aa 209 to aa 253; about 32 kDa with the tag; source: E. coli, purified (Ni-NTA Agarose); not shown: His6, N-terminal, kept; Sumo, N-terminal, kept
In the case of B4, the entries for the “stoichiometry N” value in data set [1] and in data set [2] were 4 and 2, respectively.

B5: HT:N1-213 (domain or fragment, Drosophila, UniProt Q8SYK5 1-213, looked up)
chain: MENQYQRIVSATAREDSQARRSKPLFLNAWSQTSSVDFEVLRSISAPDPQVEVENRALRDKVRYLEAKLQQHKDLLSQIHATSARMQQASSLLAESRPPTPPAVQSHHILTPPSSEICAPAQNPQILDYKIISAPDDADAIEIRLAAESLNSLSTSADSDRLEICLGDENHQQSNHHNSQQQYRISNGIKRDGSSESADTPLQFIKRRKLQEI
notes: as for B3
For the molecule B5, in data set [3], the “stoichiometry N” value is 4.

By stoichiometry N is commonly meant a count of units in the complex or per binding partner.

The values above are taken from PMC6317261, “Functional dissection of the developmentally restricted BEN domain chromatin boundary factor Insensitive” (Epigenetics & Chromatin, 2019).
